The values below come from the DeepSol protein solubility set.

A short description of this data set: soluble on expression in E. coli; label from the status in PepcDB or PDB records.
As to “GPGSMYTHTRMHTTSASATLLSLPLCVRASPTNTPAAQLSALSDHLGLRVIKTNNLHTSSRSNMPAKAAAKPVKPAAKAAPKPANKAPAPKAAAAKPVAKAAPKAAAPAARPASGSSNGVYVKNWGTGSVADAANVFSAAGKVVKVQLRRQRYAIVFFENSAAVKKAIDLFNEKEVLGKTVLVVPAKTSPKPDAHENSSCVFVSPIFRPSTTKAQVMELFAGVKVQRLRMYRQNFAYAYLDSPAAAKKFVEEKNGTEFRGHTLRVALSARSLEKLRARQEAANVVIAAHRHYKTHERQ”, the “soluble on expression in E. coli” value was “not soluble”.

Take “GPGSNYTFSMRATLDDPDVQNGITQGDRQQIQDAVNAASSWLEKNREATKEEYMEQTKLIEGIAHPILSEFYKKRVMEAPPSAGPKDGAPSDEVPHAEDVD”: the “soluble on expression in E. coli” value is “soluble”.

In the case of “GPGSTGRSQATRTQERQEGRKKDMESKGTPTTRHPHVLTTARRKKETLWHGTPKRQTNPTTAVASKSEVVATSPHDGGSGRLPEDSQEATDEVVTLSSASSPLSRTLDGSCMPFAPPLGSDMAVTVACGPVNRTSLLSTEEKTAHAILGQADAMTDRRRSEEMLYYLEAARALREVTSGVEAREQCLRDEIERQSTLYSAKKLDLAEKQKVYERLHESTLRLTRNVRRIDSENDRIRDRLTKLQMTIEKMESRKLPRHIQQDVDRVVRCESVPSWQGANQRVGGCEAIVPMRSVGSVAKNTLMTELEMYTRKLRSAEVRHDKLIKELQLAVARRKGRAAAYNSFGASLSFSGYSGMGNRDGSFLTDSVGESIAIQQLERMIDDSLIRCK”, the “soluble on expression in E. coli” value is recorded as “not soluble”.

For the sequence “GPHMGGSMFSWLKKGGARGQRPEAIRTVTSSLKELYRTKLLPLEEHYRFGSFHSPALEDADFDGKPMVLVAGQYSTGKTSFIQYLLEQEVPGSRVGPEPTTDCFVAVMHGETEGTVPGNALVVDPEKPFRKLNPFGNTFLNRFMCAQLPNQVLESISIIDTPGILSGAKQRVSRGYDFPAVLRWFAERVDLIILLFDAHKLEISDEFSEAIGALRGHEDKIRVVLNKADMVETQQLMRVYGALMWALGKVVGTPEVLRVYIGSFWSQPLLVPDNRRLFELEEQDLFRDIQGLPRHAALRKLNDLVKRARLVRVHAYIISYLKKEMPTVFGKENKKKQLILKLPVIFAKIQLEHHISPGDFPDCQKMQELLMAHDFTKFHSLKPKLLEALDDMLAQDIAKLMPLLRQEELESVEAGVAGGAFEGTRMGPFVERGPDEAIEDGEEGSEDDAEWVVTKDKSKYDEIFYNLAPADGKLSGSKAKTWMVGTKLPNSVLGRIWKLSDVDRDGMLDDEEFALASHLIEAKLEGHGLPTNLPRRLVPPSKRRQKGSAE”, the “soluble on expression in E. coli” value is given as “soluble”.

With “GPHMVIRAEKMEAVTHLAASISHEIRNPLTAARGFIQLIEEQPLAADKRRQYARIAIEELDRAEAIITDYLTFAKPAPETPEKLNVKLEIERVIDILRPLANMSCVDIQATLAPFSVIGEREKFRQCLLNVMKNAIEAMPNGGTLQVYVSIDNGRVLIRIADTGVGMTKEQLERLGEPYFTTKGVKGTGLGMMVVYRIIESMNGTIRIESEIHKGTTVSIYLPLASSPSSSTISDKEKQLFAAL”, the “soluble on expression in E. coli” value was “soluble”.

For the sequence “GPLGSKDTRPQTDDVLNTKGNTFEDFYLKRELLMGIFEAGFEKPSPIQEEAIPVAITGRDILARAKNGTGKTAAFVIPTLEKVKPKLNKIQALIMVPTRELALQTSQVVRTLGKHCGISCMVTTGGTNLRDDILRLNETVHILVGTPGRVLDLASRKVADLSDCSLFIMDEADKMLSRDFKTIIEQILSFLPPTHQSLLFSATFPLTVKEFMVKHLHKPYEINLMEELTLKGITQYYAFVEERQKLHCLNTLFSKLQINQAIIFCNSTNRVELLAKKITDLGYSCYYSHARMKQQERNKVFHEFRQGKVRTLVCSDLLTRGIDIQAVNVVINFDFPKTAETYLHRIGRSGRFGHLGLAINLINWNDRFNLYKIEQELGTEIAAIPATIDKSLYVAENDET”, the “soluble on expression in E. coli” value is on record as “soluble”.

“GPLGSNEEANRFANQAKLRVQEAVFYIWSDKTLKYSQMANDEAESFRNTWLLFRSFQQWITLTQTFKEQSRLADQAFLNKMFRKILKAQEHWKH”: the “soluble on expression in E. coli” value was “soluble”.

Regarding “GPSDMYVHVGNLIYRNLHLFNSEMHESILVSYSSDLIIYRTNTVGDDYIPSCDCTQATYYCKHKNRYFPITVTSHDWYEIQESEYYPKHIQYNLLIGEGPCEPGDCGGKLLCKHGVIGIVTAGGDNHVAFIDLRHFHCAEEQ”, the “soluble on expression in E. coli” value is given as “soluble”.

For “GRVESVWDLKGVWADQAQSDSQGSTTTATRNALPEHPNALAFQVSVVEASAYKPNTSSGQTQSTNSSPYLHLVKPKKVTQSDKLDDDLKNLLDPNQVRTKLRQSFGTDHSTQPQPQSLKTTTPVFGTSSGNLSSVLSGGGAGGGSSGSGQSGVDLSPVEKVSGWLVGQLPSTSDGNTSSTNNLAPNTNTGNDVVGVGRLSESNAAKMNDDVDGIVRTPLAELLDGEGQTADTGPQSVKFKSPDQIDFNRLFTHPVTDLFDPVTMLVYDQYIPLFIDIPASVNPKMVRLKVLSFDTNEQSLGLRLEFFKPDQDTQPNNNVQVNPNNGDFLPLLTASSQGPQTLFSPF”, the “soluble on expression in E. coli” value is “soluble”.

Take “GRYTQIRFDEDIKRPFPELQQEFLSLLRKSVSEAVQGQKAGTFLSGGTDSSTLAGILTEVTGEPAKTYSIGFEATGYDEMHYARIAARHFATDHHEYYVTPDDVVETIPLIASVFDQPFGNASALPAYYCGRMARNDGLDLLLGGDGGDELFGGNVRYAKQYIFSLYDKIPAPLRNYLLSPFILSLPENKGPKLLRKARSYVAQATVPMPHRMETYNLLAHYGFETVFSPELLAKIDTAQPALLIERTYQDVSHARSLINRMLAFDWKFTLADNDFPKVVQACHLAGMEVAFPFVNDEILAFSLALPPEQKLKGTQLRYFFKQALRGFLPDEIITKQKQGFGLPFGVWLQTHRPLREIAADSLSDLKSRNIIRTDFIDQLLDQHLHEHASYHGTMVWLLMMLEYWFKQH”: the “soluble on expression in E. coli” value is on record as “not soluble”.

Consider “GSDGTREFLTFEVPLNDSGSAGLGVSVKGNRSKENHADLGIFVKSIINGGAASKDGRLRVNDQLIAVNGESLLGKANQEAMETLRRSMSTEGNKRGMIQLIVARRISRCNE”, for which the “soluble on expression in E. coli” value is listed as “soluble”.

Consider “GSGAVSIASSKVSAQYTSTVPPSHYIETWAKTHPEWKAVEVATGFLGSQKIVTEDWTYKKLNETANQVANLIIHASLHGRAIAVSLDRSLIAFAIIVGIMKSGNTYVPIEAGLPNDRKSFLLRDSRAAMAFVCDNNFDGVELPPETKVLDTKNQSFIENLSTQDTSDILNNYPENLDAYLLYTSGSTGTPKGVRVSRHNLSSFSDAWGKLIGNVAPKSLELGGVGKFLCLASRAFDVHIGEMFLAWRFGLCAVTGERLSMLDDLPRTFRELGVTHAGIVPSLLDQTGLVPEDAPHLVYLGVGGEKMTPRTQQIWSSSDRVALVNVYGPTEVTIGCSAGRILPDSDTRCIGHPLGDSVAHVLAPGSNEHVKKGMAGELVIEGSLVANGYLNRPDAKGFCDINGRKMYRTGDIVRMDADSSILFLGRKDEQVKVRGQRLELGEVSEVIRSLSPTDIDVVTLLLNHPGTSKQFLVSFVASSGAAVRGELRWINENYKEINNSLRQACEQTLPAYMVPDFIIPISFIPLRDTSAKTDAKALEHMFHTLSLGELFGESSSLVNKPTT”, for which the “soluble on expression in E. coli” value was “soluble”.

For the sequence “GSHMAKTLKDLDGWQVIITDDQGRVIDDNNRRRSRKRGGENVFLKRISDGLSFGKGESVIFNDNVTETYSVYLIHEIRLNTLNNVVEIWVFSYLRWFELKPKLYYEQFRPDLIKEDHPLEFYKDKFFNEVNKSELYLTAELSEIWLKDFIAVGQILPESQWNDSSIDKIEDRDFLVRYACEPTAEKFVPIDIFQIIRRVKEMEPKQSDEYLKRVSVPVSGQKTNRQVMHKMG”, the “soluble on expression in E. coli” value is recorded as “soluble”.

With “GSHMAPGFTISFVNKTIIVTGGNRGIGLAFTRAVAAAGANVAVIYRSAADAVEVTEKVGKEFGVKTKAYQCDVSNTDIVTKTIQQIDADLGPISGLIANAGVSVVKPATELTHEDFAFVYDVNVFGVFNTCRAVAKLWLQKQQKGSIVVTSSMSSQIINQSSLNGSLTQVFYNSSKAACSNLVKGLAAEWASAGIRVNALSPGYVNTDQTAHMDKKIRDHQASNIPLNRFAQPEEMTGQAILLLSDHATYMTGGEYFIDGGQLIW”, the “soluble on expression in E. coli” value was “soluble”.
